The results in this text go back to PMC6795808, “N6-methyladenosine modification of circNSUN2 facilitates cytoplasmic export and stabilizes HMGA2 to promote colorectal liver metastasis”.

One series addresses YTHDC1 WT (UniProt Q96MU7 1-727). Put plainly: EMSA; LightShift Chemiluminescent RNA EMSA kit binding buffer (composition not stated), 30 min, room temperature; 6% native PAGE, 0.5x TBE; supershift preincubation with antibody 20 min at 0 C. The note with it: protein: recombinant; tags: FLAG; label: 3'-biotin. For orientation: In EMSA bound probe runs differently from free probe, usually more slowly.

Another series has as its target IGF2BP2 WT (UniProt Q9Y6M1 1-599). Put plainly: EMSA; dose-dependent; confirmed by supershift; LightShift Chemiluminescent RNA EMSA kit binding buffer (composition not stated), 30 min, room temperature; 6% native PAGE, 0.5x TBE; supershift preincubation with antibody 20 min at 0 C. The settings on record: protein: recombinant; tags: FLAG; label: 3'-biotin.

Chain of IGF2BP2 WT (Q9Y6M1 whole entry): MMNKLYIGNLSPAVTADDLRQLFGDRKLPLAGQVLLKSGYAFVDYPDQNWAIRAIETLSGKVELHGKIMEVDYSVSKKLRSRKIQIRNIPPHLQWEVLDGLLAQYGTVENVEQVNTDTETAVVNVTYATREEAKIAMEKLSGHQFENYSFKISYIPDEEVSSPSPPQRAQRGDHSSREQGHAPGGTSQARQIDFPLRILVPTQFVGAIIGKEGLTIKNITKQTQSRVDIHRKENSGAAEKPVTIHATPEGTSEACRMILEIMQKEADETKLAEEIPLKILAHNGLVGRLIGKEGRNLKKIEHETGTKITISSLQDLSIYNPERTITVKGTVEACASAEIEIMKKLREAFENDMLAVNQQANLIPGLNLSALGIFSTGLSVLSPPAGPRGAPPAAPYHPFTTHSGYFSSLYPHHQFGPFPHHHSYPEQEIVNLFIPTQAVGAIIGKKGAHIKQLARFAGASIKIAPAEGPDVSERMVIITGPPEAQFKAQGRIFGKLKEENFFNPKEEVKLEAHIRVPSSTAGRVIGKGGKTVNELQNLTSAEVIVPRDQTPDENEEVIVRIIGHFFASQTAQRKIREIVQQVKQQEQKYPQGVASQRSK

B1: circNSUN2-m6A wild type (ssRNA)
RNA: AUAAGGUAUCCUGAAGAACU
modifications: m6A not marked in the printed sequence; whether A18 is methylated in the probe is unclear
For the molecule B1, the binding result in the series with YTHDC1 WT is listed as “binds”.
On to CCUCAUCAUAAGGUAUCCUG (ssRNA) [circNSUN2 wild type (IGF2BP2 probe)], for which the binding result with IGF2BP2 WT was “binds”.
